Patent US20220280663A1, “[…] TARGETED […] ACTIVE SUBSTANCE OR LABEL […] SYSTEM” (CELLIS AG, priority 2016, published 2022)

What was measured:
Format in all cases: cell-based
CD45^+ leukocyte cell = test: Uptake and storage of iron binding proteins by CD45+ leukocyte cells
Method: (§1) Obtained cells are incubated in ferritin solution for a time and at the concentration sufficient to ensure proper ratio of ferritin/cell for their full load and also to ensure proper drug content to obtain therapeutic effect or contrast for proper imaging. The time and concentration may vary depending on the number of molecules encapsulated/adsorbed into the ferritin cage, status of cell activation, condition and number of their intended administration.
For example, to ensure proper load with ferritins, cells are incubated for 1-4 hours in ferritin solution 0.8 mg/ml in standard culture conditions. The frame of ferritin concentration may vary at least between 0.01 and 4 mg/ml as well as incubation time (5 min-6 hours or more). Adjusting time and concentration of ferritin load to cells, the influence of ferritin and treatment conditions on cell viability should be minded.
as §1, with “haemoglobin” for “ferritin”, “haemoglobin/cell” for “ferritin/cell”, “linked with” for “encapsulated/adsorbed into”, “haemoglobin molecule,” for “ferritin cage,”, “administration. […]” for “administration.”

cancer cells = test: Transfer of iron binding proteins from loaded leukocytes to co-cultured cancer cells
From the text: However, in case of cancer cells the ratio of both cell types is crucial. The more macrophages the better and faster the transport is. The most efficient transfer to the cancer cells was observed when ratio of macrophages to cancer cells was 1:1 or more.
This transfer of compounds conjugated with anticancer drugs made the effect inducing apoptosis in cancer cells (FIG. 6, 13).
However, the ratio of both cell types is important. The more monocytes the better and faster the transport is. The most efficient transfer to the cancer cells was observed when ratio of monocytes to cancer cells was 1:1 or more.
However, the ratio of both cell types is crucial. The more granulocytes the better and faster the transport is. The most efficient transfer to the cancer cells was observed when ratio of granulocytes to cancer cells was 1:1 or more.
However, the ratio of both cell types is crucial. The more lymphocytes the better and faster the transport is. The most efficient transfer to the cancer cells was observed when ratio of lymphocytes to cancer cells was 1:1 or more.

EMT6 = test: Ferritin transfer from RAW264.7 macrophages to EMT6 cells under oxidative stress
From the text: FIG. 27: Ferritin transfer was examined in cancer cells (EMT6) co-cultured with ferritin-loaded macrophages (RAW264.7) for 2 hrs. Three experimental conditions were used: “ctrl” (normal co-culture, no stress); “EMT6 OS” when EMT6 cells were subjected to the oxidative stress before co-culture and then co-cultured with macrophages at normoxic conditions and “co-culture OS” when both cell types were subjected to the oxidative stress before the co-culture. […] It can be related with higher load of ferritin due to oxidative stress and therefore more efficient transfer, or oxidative stress triggers macrophages to more efficiently deliver ferritins to cancer cells in order to reduce oxidative stress in neighboring cells.

B1: ferritins: recombinant mouse ferritin protein of SEQ ID NO: 4; mammalian ferritin H and/or L homopolymers (protein)
chain: MTTASPSQVRQNYHQDAEAAINRQINLELYASYVYLSMSCYFDRDDVALKNFAKYFLHQSHEEREHAEKLMKLQNQRGGRIFLQDIKKPDRDDWESGLNAMECALHLEKSVNQSLLELHKLATDKNDPHLCDFIETYYLSEQVKSIKELGDHVTNLRKMGAPEAGMAEYLFDKHTLGHGD
With B1 the “release of absorbed ferritin to the culture medium” value (CD45^+ leukocyte cell; after ferritin loading (FIG. 9)) was “do not release it to the culture medium”, the “uptake of iron binding protein by cells” value (CD45^+ leukocyte cell; incubation 1-4 hours in protein solution (ferritin 0.8 mg/ml; haemoglobin, transferrin 0.1 mg/ml), standard culture conditions) was “very easily uptake” and the “specificity of transfer from macrophages: cancer cells versus non-cancer cells” value (cancer cells; FIG. 11) was “much more specific to cancer cells than to non-cancer cells”. For the same molecule, the “transport to cancer cells from granulocytes” value (cancer cells; loaded granulocytes (FIG. 15)) was “very easily transport”, the “transport to cancer cells from lymphocytes” value (cancer cells; loaded lymphocytes (FIG. 16)) was “very easily transport” and the “transport to cancer cells from macrophages” value (cancer cells; loaded macrophages, mouse mammary, colon, canine mammary, human breast, pancreatic, bladder cancer cells) was “very easily transport”. The “transport to cancer cells from monocytes” value (cancer cells; loaded monocytes (FIG. 14)) was “very easily transport”, the “ferritin received by cancer cells from macrophages versus control” value (EMT6; EMT6 OS: EMT6 cells subjected to oxidative stress before 2 hrs co-culture) was “more ferritins than control cells” and the “ferritin uptake by cancer cells from macrophages” value (EMT6; co-culture OS: both cell types subjected to oxidative stress before 2 hrs co-culture) was “even more efficient”.
